Laboratory results taken from article PMC12060060 (Investigative Ophthalmology & Visual Science, 2025).

Target: the molecule itself
Assay: dynamic light scattering

B1: Q147E deamidated αA-crystallin (recombinant human) (natural protein, UniProt P02489 1-173, looked up)
chain: MDVTIQHPWFKRTLGPFYPSRLFDQFFGEGLFEYDLLPFLSSTISPYYRQSLFRTVLDSGISEVRSDRDKFVIFLDVKHFSPEDLTVKVQDDFVEIHGKHNERQDDHGYISREFHRRYRLPSNVDQSALSCSLSADGMLTFCGPKIETGLDATHAERAIPVSREEKPTSAPSS
binding result: binds
